Legend:
[1] = target: HLA-B*40:01 (human); test: stable pHLA monomer refolding
[2] = target: T1, HLA-A*01:01 (human); test: stable pHLA monomer refolding
T1 construct: also called HLA-A1

[3] = target: T2, HLA-A*02:01 (human); test: stable pHLA monomer refolding
T2 construct: also called HLA-A2

[4] = target: T3, HLA-A*03:01 (human); test: stable pHLA monomer refolding
T3 construct: also called HLA-A3

[5] = target: HLA-A*11:01 (human); test: stable pHLA monomer refolding
[6] = target: HLA-A*24:02 (human); test: stable pHLA monomer refolding
[7] = target: T4, Jchain (joining chain) peptide on HLA-A*24:02 (human); test: NSG mice with established U266 + HLA-A24 + luciferase; 3-6x10^6 TCR-transduced CD8 T cells i.v.; bioluminescence; full-length, on cells
T4 peptide: CYTAVVPLV

[8] = target: T5, Jchain (joining chain) peptide on HLA-A*11:01 (human); test: killing
T5 peptide: ISDPTSPLRTR

[9] = target: T6, Jchain (joining chain) peptide on HLA-A*03:01 (human); test: NSG mice with established wild-type HLA-A3pos U266 + luciferase; TCR-transduced CD8 T cells i.v.; bioluminescence; complete eradication in hIL-7/hIL-15 NSG mice (FIG. 15); full-length, on cells
T6 peptide: ISDPTSPLRTR

[10] = target: T6, Jchain (joining chain) peptide on …; test: killing
[11] = target: T5, Jchain (joining chain) peptide on …; test: NSG mice with established U266 + HLA-A11 + luciferase; 3-6x10^6 TCR-transduced CD8 T cells i.v.; bioluminescence; full-length, on cells
[12] = target: T7, Jchain (joining chain) peptide on HLA-A*01:01 (human); test: multimer staining
T7 peptide: YTAVVPLVY

GETKMVETAL (also called GET peptide) [Jchain derived peptide GETKMVETAL (SEQ ID NO: 107)]: binds [1].

TAVVPLVY (also called TAV peptide) [Jchain derived peptide TAVVPLVY (SEQ ID NO: 102)]: binds [2].

VLAVFIKAVHV (also called VLA1 peptide) [Jchain derived peptide VLAVFIKAVHV (SEQ ID NO: 103)]: binds [3].

VLAVFIKAV (also called VLA2 peptide) [Jchain derived peptide VLAVFIKAV (SEQ ID NO: 104)]: binds [3].

YTAVVPLV [Jchain derived peptide YTAVVPLV (SEQ ID NO: 105)]: binds [3].

ISDPTSPLRTR (also called ISD peptide) [Jchain derived peptide ISDPTSPLRTR (SEQ ID NO: 101)]: binds [4]; binds [5].

RIIVPLNNR (also called RII peptide) [Jchain derived peptide RIIVPLNNR (SEQ ID NO: 106)]: binds [5].

CYTAVVPLV (also called CYT peptide) [Jchain derived peptide CYTAVVPLV (SEQ ID NO: 100)]: binds [6].

B1: TCR clone 10H11.11 (TCR, V domains shown)
Valpha: EDQVTQSPEALRLQEGESSSLNCSYTVSGLRGLFWYRQDPGKGPEFLFTLYSAGEEKEKERLKATLTKKESFLHITAPKPEDSATYLCAVLSGGSYIPTFGRGTSLIVHP
Vbeta: DTGVSQDPRHKITKRGQNVTFRCDPISEHNRLYWYRQTLGQGPEFLTYFQNEAQLEKSRLLSDRFSAERPKGSFSTLEIQRTEQGDSAMYLCASSPLLRDSEEKLFFGSGTQLSVL
With B1 the “fold lower tumor load than in CMV TCR control mice” value (“fold lower tumor load than” below) [7] was 209 fold.

B2: TCR clone 5C8.16 (TCR, V domains shown)
Valpha: AQSVTQLDSHVSVSEGTPVLLRCNYSSSYSPSLFWYVQHPNKGLQLLLKYTSAATLVKGINGFEAEFKKSETSFHLTKPSAHMSDAAEYFCVVKWADSWGKLQFGAGTQVVVTP
Vbeta: AAGVIQSPRHLIKEKRETATLKCYPIPRHDTVYWYQQGPGQDPQFLISFYEKMQSDKGSIPDRFSAQQFSDYHSELNMSSLELGDSALYFCASSLGTGNFYEQYFGPGTRLTVT
With B2 the binding result [8] was “no recognition” and the “fold lower tumor load than” value [9] was 70 fold.

B3: TCR clone 16C7.9 (TCR, V domains shown)
Valpha: AQKITQTQPGMFVQEKEAVTLDCTYDTSDPSYGLFWYKQPSSGEMIFLIYQGSYDQQNATEGRYSLNFQKARKSANLVISASQLGDSAMYFCAMREDYTGGFKTIFGAGTRLFVKA
Vbeta: GAGVSQTPSNKVTEKGKYVELRCDPISGHTALYWYRQSLGQGPEFLIYFQGTGAADDSGLPNDRFFAVRPEGSVSTLKIQRTERGDSAVYLCASSLISGGNEQFFGPGTRLTVL
B3 was tested, and the binding result [10] was “no recognition” and the “fold lower tumor load than” value [11] was 190 fold.

B4: TCR clone 4G8.8 (TCR, V domains shown)
Valpha: AQTVTQSQPEMSVQEAETVTLSCTYDTSENNYYLFWYKQPPSRQMILVIRQEAYKQQNATENRFSVNFQKAAKSFSLKISDSQLGDTAMYFCAFMKHVEYGNKLVFGAGTILRVKS
Vbeta: DAGITQSPRHKVTETGTPVTLRCHQTENHRYMYWYRQDPGHGLRLIHYSYGVKDTDKGEVSDGYSVSRSKTEDFLLTLESATSSQTSVYFCAARDSANEKLFFGSGTQLSVL
B4: recognises [12].

B5: TCR clone 13F6.6 (TCR, V domains shown)
Valpha: AQSVSQHNHHVILSEAASLELGCNYSYGGTVNLFWYVQYPGQHLQLLLKYFSGDPLVKGIKGFEAEFIKSKFSFNLRKPSVQWSDTAEYFCAASSGGYQKVTFGIGTKLQVIP
Vbeta: DVKVTQSSRYLVKRTGEKVFLECVQDMDHENMFWYRQDPGLGLRLIYFSYDVKMKEKGDIPEGYSVSREKKERFSLILESASTNQTSMYLCASSLRREVGDTQYFGPGTRLTVL
B5: recognises [12].

From patent US20250177443A1 (ACADEMISCH ZIEKENHUIS LEIDEN H O D N LUMC, published 2025)
